PMC9792452

Molecular target: T1, Interferon regulatory factor 3 (human (endogenous in A375)), Q14653
T1 chain: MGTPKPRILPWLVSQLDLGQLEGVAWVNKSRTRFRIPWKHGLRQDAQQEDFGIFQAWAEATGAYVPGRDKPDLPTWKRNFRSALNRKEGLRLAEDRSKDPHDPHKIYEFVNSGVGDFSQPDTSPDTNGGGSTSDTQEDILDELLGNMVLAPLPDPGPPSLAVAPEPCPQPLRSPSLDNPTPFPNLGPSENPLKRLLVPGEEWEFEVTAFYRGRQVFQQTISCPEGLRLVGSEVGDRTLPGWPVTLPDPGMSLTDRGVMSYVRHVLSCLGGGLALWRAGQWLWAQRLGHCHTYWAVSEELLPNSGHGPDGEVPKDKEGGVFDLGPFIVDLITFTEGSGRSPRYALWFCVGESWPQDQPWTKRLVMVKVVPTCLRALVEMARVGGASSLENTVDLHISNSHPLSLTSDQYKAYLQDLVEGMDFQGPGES
Assay: cross-linking; covalent cross-link formed in cells (TG2-dependent), seen by Western blot of SDS-polyacrylamide gels under denaturing conditions; A375 cells treated with doxorubicin 5 μM for 6, 16 and 24 h; HeLa cells too
Conditions: remark: other sources report otherwise

stoichiometry N: 2
B1: Interferon regulatory factor 3, Q14653 1-427 (natural protein)
chain: MGTPKPRILPWLVSQLDLGQLEGVAWVNKSRTRFRIPWKHGLRQDAQQEDFGIFQAWAEATGAYVPGRDKPDLPTWKRNFRSALNRKEGLRLAEDRSKDPHDPHKIYEFVNSGVGDFSQPDTSPDTNGGGSTSDTQEDILDELLGNMVLAPLPDPGPPSLAVAPEPCPQPLRSPSLDNPTPFPNLGPSENPLKRLLVPGEEWEFEVTAFYRGRQVFQQTISCPEGLRLVGSEVGDRTLPGWPVTLPDPGMSLTDRGVMSYVRHVLSCLGGGLALWRAGQWLWAQRLGHCHTYWAVSEELLPNSGHGPDGEVPKDKEGGVFDLGPFIVDLITFTEGSGRSPRYALWFCVGESWPQDQPWTKRLVMVKVVPTCLRALVEMARVGGASSLENTVDLHISNSHPLSLTSDQYKAYLQDLVEGMDFQGPGES
